From patent US20230051580A1 (HUDSON INSTITUTE OF MEDICAL RESEARCH, published 2023)

T1: short peptide comprising the intact N-terminus of human CXCL10 (NH2-VPLSRTVRCTCISISNQPVNPRSLE-COOH) (human)
T1 construct: Synthesised by Mimotopes; also called N-terminally intact CXCL10 peptide
T1 peptide: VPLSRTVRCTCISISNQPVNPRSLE

T2: recombinant full-length (mature) human CXCL10 (human, UniProt P02778 22-98)
T2 construct: Recombinant protein from Genscript, used for immunisation and as the assay standard; also called full-length CXCL10; IP-10
T2 sequence: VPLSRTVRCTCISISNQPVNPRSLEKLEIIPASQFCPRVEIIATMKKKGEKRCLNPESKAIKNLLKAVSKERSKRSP

T3: short peptide comprising the truncated N-terminus of human CXCL10 (NH2-LSRTVRCTCISISNQPVNPRSLE-COOH) (human)
T3 construct: Synthesised by Mimotopes; also called VP-truncated N-term; N-terminally truncated form
T3 peptide: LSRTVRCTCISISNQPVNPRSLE


Key:
Experiment in all cases: SPR (ProteOn XPR36), antibody immobilised, antigen applied
[1] = molecular target: T1, short peptide comprising the intact …
Experimental: (§1) Two monoclonal antibodies; namely mAb-RA2 specific for full length, N-terminally intact CXCL10, and mAb-RG2 specific for both full length and truncated CXCL10, were analysed by Surface Plasmon Resonance (SPR) for binding affinity against both forms of CXCL10. Experiments were performed using a ProteOn XPR36 SPRi biosensor (BioRad), equipped with a GLC chip. The chip was conditioned with 0.5% SDS, 50 mM NaOH and 100 mM HCl, and then the lanes were activated using equal parts 1-Ethyl-3-(3-dimethylaminopropyl) carbodiimide (EDAC) and N-Hydroxysuccinimide (NETS). The antibodies were immobilised in separate lanes at a concentration of 50 μg/mL in sodium acetate buffer (pH4.5), then each lane deactivated using ethanolamine. Antigens were applied to each lane, and binding was recorded as RU. All channels were regenerated using 0.85% […] between applications of antigen. Interspot and control RU were subtracted to give specific binding.
(§2) The inventors developed a monoclonal antibody that could differentiate between the N-terminally intact, chemotactically active form of CXCL10 and all other variants. Using full-length CXCL10 protein as the antigen, hybridoma clones were isolated and screened for reactivity against (i) full-length CXCL10 protein; and (ii) short synthetic peptides, representing either the intact or truncated N-terminus of CXCL10. Antibodies secreted by clone mAb-RA2 recognized both full-length and N-terminally intact CXCL10, but not the N-terminally truncated form (Table 4). Antibodies secreted by clone mAb-RG2 reacted with all proteoforms of CXCL10 tested. […] The open reading frames encoding the variable regions of both antibodies was sequenced.

[2] = molecular target: T2, recombinant full-length (mature) human …
Experimental: as §1, §2

[3] = molecular target: T3, short peptide comprising the truncated …
Experimental: as §1, §2

Kd [1] [nM]	Kd [2] [nM]	Kd [3] [nM]	binding result [3]	Binder
3.54	0.00389	3		anti-CXCL10 monoclonal antibody mAb-RG2 (antibody, V domains shown, It was immobilised on the chip in SPR, and used biotinylated as the detection antibody in the sandwich ELISA (ART); also called anti-CXCL10 antibody RG2) VH: QIQLVQSGPDLKKPGETVKISCKASGYTFTNYGMNWVKQAPGKGLKWMAWINTNSGEPTYAEEFKGRFALSLDTSASTAYLQINNLKNEDTATYFCARYTGEFFYNGSSYVSYWYFDVWGAGATVTVSS VL: DIVLTQSPASLAVSLGQRATISCRASKSVSSSGYSYMHWYQQKPGQPPKLLIYLASNLESGVPARFSGSGSGSDFTLNIHPVEEEDAATYYCQHSRDLPWTFGGGTKLEIKR
0.736	0.49		no binding	anti-CXCL10 monoclonal antibody mAb-RA2 (antibody, V domains shown, It was immobilised on the chip in SPR, and used biotinylated as the detection antibody in the sandwich ELISA (ART); also called anti-CXCL10 antibody RA2) VH: QVQLQQPGAELVRPGASVKLSCKASGYTFTSHWMIWVKQRPGQGLEWIGMIDPSDSATHYNQMFKDKATLTVDKSSSTAYMQLSSLTSEDSAVYYCANTRHDESWGQGTLVTVSA VL: DIQMTQSPSSLSASLGGRVTITCKASQDIHKYIAWYQHKPGKGPRLLIYDTSTLQPGIPSRFTGSGSGRDYSFSISNLEPEDIATYYCLQYDDLYTFGGGTKLEIKR
